In the test the target is T1, nucleoprotein of influenza A virus (NP383-391) peptide on HLA-B*27:05 (human).
T1 peptide: SRYWAIRTR
Put plainly: activation reporter or marker.

B1: GRb (TCR, V domains shown)
Valpha: AQTVTQSQPEMSVQEAETVTLSCTYDTSENNYYLFWYKQPPSRQMILVIRQEAYKQQNATENRFSVNFQKAAKSFSLKISDSQLGDAAMYFCAYFSGGSNYKLTFGKGTLLTVNP
Vbeta: DTEVTQTPKHLVMGMTNKKSLKCEQHMGHRAMYWYKQKAKKPPELMFVYSYEKLSINESVPSRFSPECPNSSLLNLHLHALQPEDSALYLCASSQEVLDTQYFGPGTRLTVL
Take B1: the binding result is listed as “recognises”.
